We go through two proteins from article PMC7836013, “Characterization of Formononetin Sulfonation in SULT1A3 Overexpressing HKE293 Cells: Involvement of Multidrug Resistance-Associated Protein 4 in Excretion of Sulfate” (Frontiers in Pharmacology, 2021).

Substrate in data set [1]: COc1ccc(-c2coc3cc(O)ccc3c2=O)cc1
Description: Formononetin sulfonation enzyme kinetics in HEK-SULT1A3 cell lysate. Particulars: other: HEK-SULT1A3 cell lysate, Michaelis-Menten, mean ± SD (n = 3); pH 7.4. Format: in vitro ADME, human. Here is the method:
(§1) Enzyme kinetic of formononetin incubated with recombinant human SULT1A3 enzyme (rSULT1A3) was evaluated. The reaction was activated after the coenzyme PAPS (which provides sulfonate group to the substrates) was added. The incubation reaction was conducted in 200 μL potassium phosphate buffer (50 mM, pH 7.4) at 37°C, containing SULT1A3 enzyme (0.1 mg/ml), formononetin (0.16–40 μM), and PAPS (a final concentration of 0.10 mM). After incubation for 120 min, the reaction was terminated by adding 100 μL ice-cold acetonitrile. Then the samples were vortexed and centrifuged at 15,000 g for 15 min. The supernatant was analyzed by HPLC for sulfate quantification. All incubations were performed in triplicate. Preliminary experiments were performed to ensure that the rates of sulfation were determined under linear conditions with respect to incubation time and protein concentration.
The sulfonation rates of formononetin at different concentrations were determined according to the sulfonation assay protocol. The kinetic model Michaelis-Menten (Eq. 1) was fitted to the data of sulfonation rates vs. formononetin concentrations. […] The intrinsic clearance (CLint) was calculated by Vmax/Km.
Quantification of formononetin sulfate was performed using Agilent 1,260 Infinity II HPLC system with a ZORBAX SB-C18 column (4.6 × 250 mm, 5 μm; Agilent). […] The samples were analyzed using a gradient of ammonium acetate (2.5 mM) in water (mobile phase A) vs. acetonitrile (mobile phase B) at a flow rate of 1.0 ml/min. […]
HEK293 cells were stably transfected with the cDNA of Human SULT1A3 enzyme through the lentiviral transduction approach ([Sun et al., 2015]), which were named as HEK-SULT1A3 cells. The transduction efficiency was evaluated by measuring the SULT1A3 protein levels in both control and transfected cells. The enzyme function of HEK-SULT1A3 cells was further determined using sulfonation assay. […] Then, in order to identify the function of HEK-SULT1A3 cells in sulfate generation, formononetin was incubated with the HEK-SULT1A3 cell lysate and enzyme kinetic was determined as described above.

Substrate in data set [2]: COc1ccc(-c2coc3cc(O)ccc3c2=O)cc1
Description: Formononetin sulfonation enzyme kinetics in recombinant human SULT1A3. The data set is classed as in vitro ADME. Particulars: other: rSULT1A3, Michaelis-Menten, mean ± SD (n = 3); pH 7.4. As to the method: as §1
The sulfonation rates of formononetin at different concentrations were determined according to the sulfonation assay protocol. The kinetic model Michaelis-Menten (Eq. 1) was fitted to the data of sulfonation rates vs. formononetin concentrations. Model selection was based on visual inspection of the Eadie-Hofstee plot. […] Model fitting and kinetic parameters evaluation were performed using GraphPad Prism software (5.3 version). V=Vmax·[S]/Km+[S] (1) where Vmax is the maximal velocity and Km is the Michaelis constant. The intrinsic clearance (CLint) was calculated by Vmax/Km.
Quantification of formononetin sulfate was performed using Agilent 1,260 Infinity II HPLC system with a ZORBAX SB-C18 column (4.6 × 250 mm, 5 μm; Agilent). The temperature of the column was set at 40 °C. The samples were analyzed using a gradient of ammonium acetate (2.5 mM) in water (mobile phase A) vs. acetonitrile (mobile phase B) at a flow rate of 1.0 ml/min. The gradient elution condition was 15% B at 0–2.0 min, 15–95% B at 2.0–12 min, 95% B at 12–15 min, and 95–15% B at 15–18 min. The waiting time was 7.0 min at 15% B in order to ensure the column pressure is back to a stable state before the next injection. […]

B1: HEK-SULT1A3 cell lysate (Homo sapiens) (protein)
chain: MELIQDTSRPPLEYVKGVPLIKYFAEALGPLQSFQARPDDLLINTYPKSGTTWVSQILDMIYQGGDLEKCNRAPIYVRVPFLEVNDPGEPSGLETLKDTPPPRLIKSHLPLALLPQTLLDQKVKVVYVARNPKDVAVSYYHFHRMEKAHPEPGTWDSFLEKFMAGEVSYGSWYQHVQEWWELSRTHPVLYLFYEDMKENPKREIQKILEFVGRSLPEETMDFMVQHTSFKEMKKNPMTNYTTVPQELMDHSISPFMRKGMAGDWKTTFTVAQNERFDADYAEKMAGCSLSFRSEL
notes: expressed in transfected cells; cell lysate used
Usually Km stands for the substrate concentration at which the rate is half of its maximum. As a reminder, the Vmax is the rate approached at saturating substrate. Turning to B1, in data set [1], the Michaelis-Menten constant (Km) came to 6.17 µM, the Vmax is on record as 13.94 pmol/min/mg and the Vmax/Km came out at 2.26 ± 0.42 µL/min/mg.

B2: Recombinant human SULT1A3 enzymes (rSULT1A3) (Homo sapiens) (protein)
chain: MELIQDTSRPPLEYVKGVPLIKYFAEALGPLQSFQARPDDLLINTYPKSGTTWVSQILDMIYQGGDLEKCNRAPIYVRVPFLEVNDPGEPSGLETLKDTPPPRLIKSHLPLALLPQTLLDQKVKVVYVARNPKDVAVSYYHFHRMEKAHPEPGTWDSFLEKFMAGEVSYGSWYQHVQEWWELSRTHPVLYLFYEDMKENPKREIQKILEFVGRSLPEETMDFMVQHTSFKEMKKNPMTNYTTVPQELMDHSISPFMRKGMAGDWKTTFTVAQNERFDADYAEKMAGCSLSFRSEL
notes: purchased Sekisui XenoTech LCC (Kansas, USA)
Take B2: in data set [2], the Km worked out at 6.01 ± 0.97 µM, the maximal velocity (Vmax) is listed as 145.30 ± 7.91 pmol/min/mg and the Vmax/Km was determined as 24.18 ± 4.13 µL/min/mg.
